Experimental findings from US20140087995A1 (published 2014) are described below.

Numbered stars: 1 amine (or outer) side, 2 acyl side, 3 side chain; on linkers, the order of the positions; unused ones are H or OH. Bridge positions count the residues as written; N and C are the ends. Side chains are listed from the residue outwards. Ends that are not written are not given here. * marks the point of attachment. C20 diacid = O=C(O)CCCCCCCCCCCCCCCCCCC(=O)*; γGlu = O=C(O)[C@H](CCC(=O)[*:2])N[*:1]; AEEA = NCCOCCOCC(=O)O

To fix the notation:
T1: human calcitonin receptor (human, UniProt P30988 25-474)
T1 construct: whole, on cells; also called hCTR; hCT
T1 sequence (looked up): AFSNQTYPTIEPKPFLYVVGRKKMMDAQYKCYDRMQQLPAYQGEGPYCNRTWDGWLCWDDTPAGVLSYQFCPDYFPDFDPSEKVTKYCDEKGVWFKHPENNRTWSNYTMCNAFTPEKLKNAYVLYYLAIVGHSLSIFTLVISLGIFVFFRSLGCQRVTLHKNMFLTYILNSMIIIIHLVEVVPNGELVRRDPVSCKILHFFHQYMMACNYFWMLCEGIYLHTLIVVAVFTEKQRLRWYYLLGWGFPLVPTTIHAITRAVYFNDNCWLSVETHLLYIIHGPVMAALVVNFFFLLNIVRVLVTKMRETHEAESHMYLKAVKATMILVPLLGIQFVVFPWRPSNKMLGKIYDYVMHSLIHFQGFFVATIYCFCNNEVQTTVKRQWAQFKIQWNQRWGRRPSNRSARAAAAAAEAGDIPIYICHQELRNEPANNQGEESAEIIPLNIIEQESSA

B1: N^ε1-[2-[2-[2-[[(4S)-4-carboxy-4-(19-carboxynonadecanoylamino)butanoyl]amino]ethoxy]ethoxy]acetyl]-[Arg17,Pro21,Pro27,Pro34]-h-amylin (peptide)
peptide: K([AEEA-γGlu-C20 diacid])CNTATCATQRLANFLRHSSPNFGAIPSSTNVGPNTY-NH2
modifications: disulfide 2-7; N-terminus assumed
SMILES: CC[C@H](C)[C@H](NC(=O)[C@H](C)NC(=O)CNC(=O)[C@H](Cc1ccccc1)NC(=O)[C@H](CC(N)=O)NC(=O)[C@@H]1CCCN1C(=O)[C@H](CO)NC(=O)[C@H](CO)NC(=O)[C@H](Cc1c[nH]cn1)NC(=O)[C@H](CCCNC(=N)N)NC(=O)[C@H](CC(C)C)NC(=O)[C@H](Cc1ccccc1)NC(=O)[C@H](CC(N)=O)NC(=O)[C@H](C)NC(=O)[C@H](CC(C)C)NC(=O)[C@H](CCCNC(=N)N)NC(=O)[C@H](CCC(N)=O)NC(=O)[C@@H](NC(=O)[C@H](C)NC(=O)[C@@H]1CSSC[C@H](NC(=O)[C@@H](N)CCCCNC(=O)COCCOCCNC(=O)CC[C@H](NC(=O)CCCCCCCCCCCCCCCCCCC(=O)O)C(=O)O)C(=O)N[C@@H](CC(N)=O)C(=O)N[C@@H]([C@@H](C)O)C(=O)N[C@@H](C)C(=O)N[C@@H]([C@@H](C)O)C(=O)N1)[C@@H](C)O)C(=O)N1CCC[C@H]1C(=O)N[C@@H](CO)C(=O)N[C@@H](CO)C(=O)N[C@H](C(=O)N[C@@H](CC(N)=O)C(=O)N[C@H](C(=O)NCC(=O)N1CCC[C@H]1C(=O)N[C@@H](CC(N)=O)C(=O)N[C@H](C(=O)N[C@@H](Cc1ccc(O)cc1)C(N)=O)[C@@H](C)O)C(C)C)[C@@H](C)O
notes: also called compound 50
B2: N^ε1-[2-[2-[2-[[(4S)-4-carboxy-4-(19-carboxynonadecanoylamino)butanoyl]amino]ethoxy]ethoxy]acetyl]-[His14,Arg17,Pro21,Pro27]-h-amylin (peptide)
peptide: K([AEEA-γGlu-C20 diacid])CNTATCATQRLAHFLRHSSPNFGAIPSSTNVGSNTY-NH2
modifications: disulfide 2-7; N-terminus assumed
SMILES: CC[C@H](C)[C@H](NC(=O)[C@H](C)NC(=O)CNC(=O)[C@H](Cc1ccccc1)NC(=O)[C@H](CC(N)=O)NC(=O)[C@@H]1CCCN1C(=O)[C@H](CO)NC(=O)[C@H](CO)NC(=O)[C@H](Cc1c[nH]cn1)NC(=O)[C@H](CCCNC(=N)N)NC(=O)[C@H](CC(C)C)NC(=O)[C@H](Cc1ccccc1)NC(=O)[C@H](Cc1c[nH]cn1)NC(=O)[C@H](C)NC(=O)[C@H](CC(C)C)NC(=O)[C@H](CCCNC(=N)N)NC(=O)[C@H](CCC(N)=O)NC(=O)[C@@H](NC(=O)[C@H](C)NC(=O)[C@@H]1CSSC[C@H](NC(=O)[C@@H](N)CCCCNC(=O)COCCOCCNC(=O)CC[C@H](NC(=O)CCCCCCCCCCCCCCCCCCC(=O)O)C(=O)O)C(=O)N[C@@H](CC(N)=O)C(=O)N[C@@H]([C@@H](C)O)C(=O)N[C@@H](C)C(=O)N[C@@H]([C@@H](C)O)C(=O)N1)[C@@H](C)O)C(=O)N1CCC[C@H]1C(=O)N[C@@H](CO)C(=O)N[C@@H](CO)C(=O)N[C@H](C(=O)N[C@@H](CC(N)=O)C(=O)N[C@H](C(=O)NCC(=O)N[C@@H](CO)C(=O)N[C@@H](CC(N)=O)C(=O)N[C@H](C(=O)N[C@@H](Cc1ccc(O)cc1)C(N)=O)[C@@H](C)O)C(C)C)[C@@H](C)O
notes: also called compound 69
B3: N^ε1-[2-[2-[2-[[(4S)-4-carboxy-4-(19-carboxynonadecanoylamino)butanoyl]amino]ethoxy]ethoxy]acetyl]-[His14,Arg17,Pro21,Pro27,Pro31]-h-amylin (peptide)
peptide: K([AEEA-γGlu-C20 diacid])CNTATCATQRLAHFLRHSSPNFGAIPSSTPVGSNTY-NH2
modifications: disulfide 2-7; N-terminus assumed
SMILES: CC[C@H](C)[C@H](NC(=O)[C@H](C)NC(=O)CNC(=O)[C@H](Cc1ccccc1)NC(=O)[C@H](CC(N)=O)NC(=O)[C@@H]1CCCN1C(=O)[C@H](CO)NC(=O)[C@H](CO)NC(=O)[C@H](Cc1c[nH]cn1)NC(=O)[C@H](CCCNC(=N)N)NC(=O)[C@H](CC(C)C)NC(=O)[C@H](Cc1ccccc1)NC(=O)[C@H](Cc1c[nH]cn1)NC(=O)[C@H](C)NC(=O)[C@H](CC(C)C)NC(=O)[C@H](CCCNC(=N)N)NC(=O)[C@H](CCC(N)=O)NC(=O)[C@@H](NC(=O)[C@H](C)NC(=O)[C@@H]1CSSC[C@H](NC(=O)[C@@H](N)CCCCNC(=O)COCCOCCNC(=O)CC[C@H](NC(=O)CCCCCCCCCCCCCCCCCCC(=O)O)C(=O)O)C(=O)N[C@@H](CC(N)=O)C(=O)N[C@@H]([C@@H](C)O)C(=O)N[C@@H](C)C(=O)N[C@@H]([C@@H](C)O)C(=O)N1)[C@@H](C)O)C(=O)N1CCC[C@H]1C(=O)N[C@@H](CO)C(=O)N[C@@H](CO)C(=O)N[C@H](C(=O)N1CCC[C@H]1C(=O)N[C@H](C(=O)NCC(=O)N[C@@H](CO)C(=O)N[C@@H](CC(N)=O)C(=O)N[C@H](C(=O)N[C@@H](Cc1ccc(O)cc1)C(N)=O)[C@@H](C)O)C(C)C)[C@@H](C)O
notes: also called compound 61
B4: N^ε1-[2-[2-[2-[[(4S)-4-carboxy-4-(19-carboxynonadecanoylamino)butanoyl]amino]ethoxy]ethoxy]acetyl]-[Gly14,Arg17,Pro21,Pro27,Pro31]-h-amylin (peptide)
peptide: K([AEEA-γGlu-C20 diacid])CNTATCATQRLAGFLRHSSPNFGAIPSSTPVGSNTY-NH2
modifications: disulfide 2-7; N-terminus assumed
SMILES: CC[C@H](C)[C@H](NC(=O)[C@H](C)NC(=O)CNC(=O)[C@H](Cc1ccccc1)NC(=O)[C@H](CC(N)=O)NC(=O)[C@@H]1CCCN1C(=O)[C@H](CO)NC(=O)[C@H](CO)NC(=O)[C@H](Cc1c[nH]cn1)NC(=O)[C@H](CCCNC(=N)N)NC(=O)[C@H](CC(C)C)NC(=O)[C@H](Cc1ccccc1)NC(=O)CNC(=O)[C@H](C)NC(=O)[C@H](CC(C)C)NC(=O)[C@H](CCCNC(=N)N)NC(=O)[C@H](CCC(N)=O)NC(=O)[C@@H](NC(=O)[C@H](C)NC(=O)[C@@H]1CSSC[C@H](NC(=O)[C@@H](N)CCCCNC(=O)COCCOCCNC(=O)CC[C@H](NC(=O)CCCCCCCCCCCCCCCCCCC(=O)O)C(=O)O)C(=O)N[C@@H](CC(N)=O)C(=O)N[C@@H]([C@@H](C)O)C(=O)N[C@@H](C)C(=O)N[C@@H]([C@@H](C)O)C(=O)N1)[C@@H](C)O)C(=O)N1CCC[C@H]1C(=O)N[C@@H](CO)C(=O)N[C@@H](CO)C(=O)N[C@H](C(=O)N1CCC[C@H]1C(=O)N[C@H](C(=O)NCC(=O)N[C@@H](CO)C(=O)N[C@@H](CC(N)=O)C(=O)N[C@H](C(=O)N[C@@H](Cc1ccc(O)cc1)C(N)=O)[C@@H](C)O)C(C)C)[C@@H](C)O
notes: also called compound 71
B5: N^ε1-[2-[2-[2-[[(4S)-4-carboxy-4-(19-carboxynonadecanoylamino)butanoyl]amino]ethoxy]ethoxy]acetyl]-[His14,Arg17,Pro21,Pro27,Pro34]-h-amylin (peptide)
peptide: K([AEEA-γGlu-C20 diacid])CNTATCATQRLAHFLRHSSPNFGAIPSSTNVGPNTY-NH2
modifications: disulfide 2-7; N-terminus assumed
SMILES: CC[C@H](C)[C@H](NC(=O)[C@H](C)NC(=O)CNC(=O)[C@H](Cc1ccccc1)NC(=O)[C@H](CC(N)=O)NC(=O)[C@@H]1CCCN1C(=O)[C@H](CO)NC(=O)[C@H](CO)NC(=O)[C@H](Cc1c[nH]cn1)NC(=O)[C@H](CCCNC(=N)N)NC(=O)[C@H](CC(C)C)NC(=O)[C@H](Cc1ccccc1)NC(=O)[C@H](Cc1c[nH]cn1)NC(=O)[C@H](C)NC(=O)[C@H](CC(C)C)NC(=O)[C@H](CCCNC(=N)N)NC(=O)[C@H](CCC(N)=O)NC(=O)[C@@H](NC(=O)[C@H](C)NC(=O)[C@@H]1CSSC[C@H](NC(=O)[C@@H](N)CCCCNC(=O)COCCOCCNC(=O)CC[C@H](NC(=O)CCCCCCCCCCCCCCCCCCC(=O)O)C(=O)O)C(=O)N[C@@H](CC(N)=O)C(=O)N[C@@H]([C@@H](C)O)C(=O)N[C@@H](C)C(=O)N[C@@H]([C@@H](C)O)C(=O)N1)[C@@H](C)O)C(=O)N1CCC[C@H]1C(=O)N[C@@H](CO)C(=O)N[C@@H](CO)C(=O)N[C@H](C(=O)N[C@@H](CC(N)=O)C(=O)N[C@H](C(=O)NCC(=O)N1CCC[C@H]1C(=O)N[C@@H](CC(N)=O)C(=O)N[C@H](C(=O)N[C@@H](Cc1ccc(O)cc1)C(N)=O)[C@@H](C)O)C(C)C)[C@@H](C)O
notes: also called compound 68
B6: N^ε1-[2-[2-[2-[[(4S)-4-carboxy-4-(19-carboxynonadecanoylamino)butanoyl]amino]ethoxy]ethoxy]acetyl]-[Lys14,Arg17,Pro21,Pro27,Pro31]-h-amylin (peptide)
peptide: K([AEEA-γGlu-C20 diacid])CNTATCATQRLAKFLRHSSPNFGAIPSSTPVGSNTY-NH2
modifications: disulfide 2-7; N-terminus assumed
SMILES: CC[C@H](C)[C@H](NC(=O)[C@H](C)NC(=O)CNC(=O)[C@H](Cc1ccccc1)NC(=O)[C@H](CC(N)=O)NC(=O)[C@@H]1CCCN1C(=O)[C@H](CO)NC(=O)[C@H](CO)NC(=O)[C@H](Cc1c[nH]cn1)NC(=O)[C@H](CCCNC(=N)N)NC(=O)[C@H](CC(C)C)NC(=O)[C@H](Cc1ccccc1)NC(=O)[C@H](CCCCN)NC(=O)[C@H](C)NC(=O)[C@H](CC(C)C)NC(=O)[C@H](CCCNC(=N)N)NC(=O)[C@H](CCC(N)=O)NC(=O)[C@@H](NC(=O)[C@H](C)NC(=O)[C@@H]1CSSC[C@H](NC(=O)[C@@H](N)CCCCNC(=O)COCCOCCNC(=O)CC[C@H](NC(=O)CCCCCCCCCCCCCCCCCCC(=O)O)C(=O)O)C(=O)N[C@@H](CC(N)=O)C(=O)N[C@@H]([C@@H](C)O)C(=O)N[C@@H](C)C(=O)N[C@@H]([C@@H](C)O)C(=O)N1)[C@@H](C)O)C(=O)N1CCC[C@H]1C(=O)N[C@@H](CO)C(=O)N[C@@H](CO)C(=O)N[C@H](C(=O)N1CCC[C@H]1C(=O)N[C@H](C(=O)NCC(=O)N[C@@H](CO)C(=O)N[C@@H](CC(N)=O)C(=O)N[C@H](C(=O)N[C@@H](Cc1ccc(O)cc1)C(N)=O)[C@@H](C)O)C(C)C)[C@@H](C)O
notes: also called compound 74

One may read the IC50 as the concentration that gives 50% inhibition.

The test has as its target T1, human calcitonin receptor. Briefly: SPA competition with 125I-calcitonin, membranes of BHK hCTR cells (Assay VII). The essentials:
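BHK hCTR membranes 35 ng/μL + SPA beads 0.05 mg/well; buffer 50 mM Hepes pH 7.4, 1 mM CaCl2, 5 mM MgCl₂, 0.1% OA, 0.02% Tween20. 120 min, 25° C., shaking. Scintillation count; IC50 by one-site binding competition.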
As to B1, the IC50 worked out at 1.38 nM.
Turning to B2, the IC50 worked out at 8.68 nM.
For B3, the IC50 was 8.11 nM.
Under B4 stands 1.53 nM; under B5, 5.66 nM.
Under B6 stands 79.9 nM.
